Experimental data taken from the supplement of paper PMC11780869.

Tested on: Bacillus subtilis
Assay: cleaved RNA product abundance (RNA/gDNA barcode ratio) relative to median wild-type variant (ratio to wild type); higher = more accumulation of the downstream cleavage product
How it was run: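 Oligos with a 9% error rate were used to build barcoded, mutagenized RNase Y cleavage-site windows within truncated aprE or tetM reporter mRNAs, which were integrated into the B. subtilis chromosome. Cultures were grown in LB at 37°C between OD600 0.0003 and 0.3. Cleaved RNA was gel-selected, reverse transcribed and barcode-sequenced, as were genomic DNA barcodes, and UMIs were collapsed. Cleaved product abundance is the scaled RNA:gDNA barcode ratio, with the median construct carrying the unmutated site as reference.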

[1] = experiment (reporter, strain, medium): exp 8a: truncated aprE reporter, strain BJT201 with 2% xylose (RNase J1 expressed), cleavage site: glnRA (positions -5 to +31 mutated)
[2] = experiment (reporter, strain, medium): exp 2b: truncated aprE reporter, strain BJT200, cleavage site: cggR-gapA (positions -7 to +36 mutated)
[3] = experiment (reporter, strain, medium): exp 4a: truncated aprE reporter, strain BJT201 with 2% xylose (RNase J1 expressed), cleavage site: cggR-gapA (positions -7 to +36 mutated)

Sequence | cleaved RNA product abundance [2] | cleaved RNA product abundance [3] | also measured
CGACATGTCCCGCTTCTTTCATTAATCCGTTAGCAAGTGTTTTGCTATATTCATTTACCTTTTAAGAGGAGGAAT | – | – | cleaved RNA product abundance [1]: 0.488
ACAGACGAAGGAGCCGCAAAGAAGTTATTAAGAGATGAAAAATCCCTCAATATAAATATCTCTCACTTATTTAAA | 0.119 | 0.18 | –
CGACATGTCCCGCTTCTTTCATTAAACCGTTAGCAACTGTTTTGCGATATACATTTACCTTTTAAGAGGAGGAAT | – | – | cleaved RNA product abundance [1]: 0.352
ACAGACGAAGGAGCCGCAAAGAAATTATTAAGGGATGAATAATCCCTCAATATAGATATCTCTCACTTATTTAAA | – | 0.474 | –
ACAGACGAAGGAGCCGCAAAGAAGTTATTAAGGGATGAATACTTCCTCAATATAAATATCTCTCACTTATTTAAA | 0.156 | 0.247 | –
ACAGACGAAGGAGCCGCAAACAAGTTATTAAGGGATGAATAATCACTCAATATAAATATCTCTCACTTATTTAAA | – | 0.127 | –
ACAGACGAAGGAGCCGCAAAGAAGTTAATAAGGCATGAATAATCCCTCAATATAAATATCTCTCACTTATTTAAA | 0.0718 | 0.104 | –
ACAGACGAAGGAGCCGCAAAGAAATTATTAAGGGATGAATAATCCTTCAATATAAATATCTCTCACTTATTTAAA | – | 0.674 | –
ACAGACGAAGGAGCCGCAAAGAAGTTAGTAAGGGATCAATAATCCCTCAATATAAATATCTCTCACTTATTTAAA | – | 0.305 | –
ACAGACGAAGGAGCCGCAAAGAAGTTATTAAGGGATGAATAATCCCTCATTATAAATATCTCTCACTTATTTAAA | 0.263 | 0.383 | cleaved RNA product abundance (experiment (reporter, strain, medium): exp 6: tetM reporter, strain 168, cleavage site: cggR-gapA (positions -7 to +36 mutated)): 0.395
ACAGACGAAGGAGCCGCGAAGAAGTTATTAAGGGATGAATTATCCCTCAATATAAATATCTCTCACTTATTTAAA | – | 0.548 | –
ACAGACGAAGGAGCCGCAAAGAAGTTATTAAGGGATGAATTTTCCCTCAATATAAATATCTCTCACTTATTTAAA | – | 0.73 | –
ACAGACGAAGGAGCCGCAAAGAAGATATTAAGGGAGGAATAATCCCTCAATATAAATATCTCTCACTTATTTAAA | – | 0.643 | –
ACAGACGAAGGAGCCGCAAAGAAGTTAATAAGGGATGACTAATCCCTCAATATAAATATCTCTCACTTATTTAAA | – | 0.308 | –
ACAGACGAAGGAGCCGCAAAGAAGTTATTAAGGGATGAATAATCCTTCATTATAAATATCTCTCACTTATTTAAA | – | 0.313 | –
ACAGACGAAGGAGCCGCAAAGAAGGTATTAAGGGATGAATAATCCCTTAATATAAATATCTCTCACTTATTTAAA | – | 0.326 | –
CGACATGTCCCGCTTCTTTCATTAATCCGTTAGCAACTGTTTTGCTATATTACATTTACCTTTTAAGAGGAGGAA | – | – | cleaved RNA product abundance [1]: 0.443
ACAGACGAAGGAGCCGCAAAGAAGTTATTAAGGTATGAATAATCCCTCAATATAACTATCTCTCACTTATTTAAA | – | 0.102 | –
ACAGACGAAGGAGCCGCAAAGAAGTTATTAAGGGATGTATAATCCCTGAATATAAATATCTCTCACTTATTTAAA | – | 0.461 | –
ACAGACGAAGGAGCCGCAAAGAAATTATTAATGGATGAATAATCCCTCAATATAAATATCTCTCACTTATTTAAA | 0.122 | 0.169 | –
CGACATGTCCCGCTTCTTTCATTAATCCATTAGCAACTGTTTTGCTATATACATTTTACTTTTAAGAGGAGGAAT | – | – | cleaved RNA product abundance [1]: 1.24
ACAGACGAAGGAGCCGCAAAGAAGTTATTAAGGGATGAATTATCCATCAATATAAATATCTCTCACTTATTTAAA | 0.163 | 0.144 | –
ACAGACGAAGGAGCCGCAAAGAAGTTATCATGGGATGAATAATCCCTCAATATAAATATCTCTCACTTATTTAAA | – | 0.262 | –

Sequence | cleaved RNA product abundance [2] | cleaved RNA product abundance [3] | also measured
ACAGACGAAGGAGCCGCAAAGATGTTATTAAGGGATGAATAATCCCTCAATCTAAATATCTCTCACTTATTTAAA | – | 0.0528 | –
ACAGACGAAGGAGCCGCAAAGAAGTTATTAAAGGATGAATAACCCCTCAATATAAATATCTCTCACTTATTTAAA | 0.105 | 0.108 | –
ACAGACGAAGGAGCCGCAAAGAAGTTATTAAGGGATGAATCATCCCTCAATAAAAATATCTCTCACTTATTTAAA | – | 0.197 | –
ACAGACGAAGGAGCCGCAAATAAGTTATTAAGGGATGAATAATCCCTCAATATACATATCTCTCACTTATTTAAA | 0.727 | 0.64 | –
ACAGACGAAGGAGCCGCAAAGATGTTATTAAGGGATGAATAATACCTCAATATAAATATCTCTCACTTATTTAAA | 0.128 | 0.142 | –
ACAGACGAAGGAGCCGCAAAGAAGTTATGAAGGGATGAATAATCCCTCAATATTAATATCTCTCACTTATTTAAA | – | 0.125 | –
ACAGACGAAGGAGCCGCAAAGAAGTTATTAAGGGATGAATAATCCCTCAACATAAACATCTCTCACTTATTTAAA | – | 0.215 | –
ACAGACGAAGGAGCCGCAAAGAAGTTATTAAGGGATGAATAAACCCTCAATATATATATCTCTCACTTATTTAAA | 0.488 | 0.477 | –
ACAGACGAAGGAGCCGCAAAGAAGTAATTAAGGGATGAATAATCCCTCTATATAAATATCTCTCACTTATTTAAA | – | 0.193 | –
CGACATGTCCCGCTTCTTTCATTAATCCGTTAACAACTGTTTTGCTATACACATTTACCTTTTAAGAGGAGGAAT | – | – | cleaved RNA product abundance [1]: 0.162
ACAGACGAAGGAGCCGCAAAGAAGTTATTAAGGGATGAATAATACCCCAATATAAATATCTCTCACTTATTTAAA | – | 0.149 | –
CGACATGTCCCGCTTCTTTCATTAATCCGTTACCAACTGTTTTACTATATACATTTACCTTTTAAGAGGAGGAAT | – | – | cleaved RNA product abundance [1]: 0.204
ACAGACGAAGGAGCCGCAAAGAAGTTATTCAGGTATGTATAATCCCTCAATATAAATATCTCTCACTTATTTAAA | – | 0.143 | –
ACAGACGAAGGAGCCGCAAAAAAGTTATTAAGGGATGAATAAACCCTCAATATAAATATCTCTCACTTATTTAAA | 0.468 | 0.631 | –
ACAGACGAAGGAGCCGCAAATAAGTTAATAAGGGATGAATAATCCCTCAATATAAATATCTCTCACTTATTTAAA | 0.247 | 0.343 | –
ACAGACGAAGGAGCCGCAAAAAAGTTACTAAGGGATGAATAATCCCTCAATATAAATATCTCTCACTTATTTAAA | 0.222 | – | –
ACAGACGAAGGAGCCGCAAAGAAGTTATTAAGTGATGAATAATCCCTCAAAATAAATATCTCTCACTTATTTAAA | 0.102 | 0.124 | –
CGACATGTCCCGCTTCTTTCATTAATCCGTTAGCTACTGTTTTGCTATATATATTTACCTTTTAAGAGGAGGAAT | – | – | cleaved RNA product abundance [1]: 0.617
CGACATGTCCCGCTTCTTTCATTAATCCATTAGCAACTGTTTTACTATATACATATACCTTTTAAGAGGAGGAAT | – | – | cleaved RNA product abundance [1]: 0.482
ACAGACGAAGGAGCCGCAAAGAAGTTATTAAGGGATGAATAATCCTTCAACATAAATATCTCTCACTTATTTAAA | 0.159 | – | –
ACAGACGAAGGAGCCGCGAAGAAGTTATTAAGGGATGAATAATCCCTCAAAATAAATATCTCTCACTTATTTAAA | – | 0.319 | –
CGACATGTCCCGCTTCTTTCATTAATGCGTTAGCAACTGTTTTGCTATATACATTTACCTTTTAAGAGGAGGAAT | – | – | cleaved RNA product abundance [1]: 0.633
ACAGACGAAGGAGCCGCAAAGAAGTTATTAAGGGATGAATAATGTCTCAATATAAATATCTCTCACTTATTTAAA | – | 0.0823 | –
